According to paper PMC5753033:

T1: Mouse profilin 2a, Q9JJV2
T1 chain: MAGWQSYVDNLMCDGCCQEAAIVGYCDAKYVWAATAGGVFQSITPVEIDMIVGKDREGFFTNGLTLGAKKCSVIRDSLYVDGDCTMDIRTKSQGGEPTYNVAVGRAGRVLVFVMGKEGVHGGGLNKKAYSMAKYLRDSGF


Legend:
[1] = target: T1, Mouse profilin 2a, Q9JJV2; assay: sedimentation equilibrium analytical ultracentrifugation; conditions: chain shown with the change
[2] = target: Human profilin 1, P07737; assay: as above; conditions: chain shown with the change; modeled as a 1:1 interaction
[3] = two-site, independent binding model with one site fixed to the measured non-specific affinity

Kd [1, 3]	Binder	also measured
	WAVE1 (P): human WAVE1 [277–488], wild-type proline-rich domain, Q92558 P279G; P280S; P281G; P282S; P348G; P349S; P350G; P351S; P354G; P355S; P356G; P357S; … (protein) MPLVKRNIDPRHLCHTALPRGIKNELECVTNISLANIIRQLSSLSKYAEDIFGELFNEAHSFSFRVNSLQERVDRLSVSVTQLDPKEEELSLQDITMRKAFRSSTIQDQQLFDRKTLPIPLQETYDVCEQPPPLNILTPYRDDGKEGLKFYTNPSYFFDLWKEKMLQDTEDKRKEKRKQKQKNLDRPHEPEKVPRAPHDRRREWQKLAQGPELAEDDANLLHKHIEVANGPASHFETRPQTYVDHMDGSYSLSALPFSQMSELLTRAEERVLVRPHEPGSGSPMHGAGDAKPIPTCISSATGLIENRPQSPATGRTPVFVSPTPPPPPPPLPSALSTSSLRASMTSTGSGSVPGSGSPPATALQAPAVGSGSAPLQIAPGVLHPAGSGIAGSLVQPSPPVARAAPVCETVPVHPLPQGEVQGLPPGSGSPPLGSGGIRPSSPVTVTALAHPPSGLHPTPSTAPGPHVPLMPPSPPSQVIPASEPKRHPSTLPVISDARSVLLEAIRKGIQLRKVEEQREQEAKHERIENDVATILSRRIAVEYSDSEDDSEFDEVDWLE	Kd ([1]; WAVE1 (PRD [B]) 15.5 µM, Pfn2 91.2, 44.8 and 21.7 µM, 7 K, 10 K, 14 K rpm, 2:1 binding model, Kd1 fit, Kd2 = 138 µM fixed): 2.07 µM
51 µM	WAVE1 (P): human WAVE1 [277–488], wild-type proline-rich domain, Q92558 P325G; P326S; P327G; P328S; P348G; P349S; P350G; P351S; P354G; P355S; P356G; P357S; … (protein) MPLVKRNIDPRHLCHTALPRGIKNELECVTNISLANIIRQLSSLSKYAEDIFGELFNEAHSFSFRVNSLQERVDRLSVSVTQLDPKEEELSLQDITMRKAFRSSTIQDQQLFDRKTLPIPLQETYDVCEQPPPLNILTPYRDDGKEGLKFYTNPSYFFDLWKEKMLQDTEDKRKEKRKQKQKNLDRPHEPEKVPRAPHDRRREWQKLAQGPELAEDDANLLHKHIEVANGPASHFETRPQTYVDHMDGSYSLSALPFSQMSELLTRAEERVLVRPHEPPPPPPMHGAGDAKPIPTCISSATGLIENRPQSPATGRTPVFVSPTPGSGSPPLPSALSTSSLRASMTSTGSGSVPGSGSPPATALQAPAVGSGSAPLQIAPGVLHPAGSGIAGSLVQPSPPVARAAPVCETVPVHPLPQGEVQGLPPGSGSPPLGSGGIRPSSPVTVTALAHPPSGLHPTPSTAPGPHVPLMPPSPPSQVIPASEPKRHPSTLPVISDARSVLLEAIRKGIQLRKVEEQREQEAKHERIENDVATILSRRIAVEYSDSEDDSEFDEVDWLE	
145 µM	WAVE1 (P): human WAVE1 [277–488], wild-type proline-rich domain, Q92558 P279G; P280S; P281G; P282S; P325G; P326S; P327G; P328S; P348G; P349S; P350G; P351S; … (protein) MPLVKRNIDPRHLCHTALPRGIKNELECVTNISLANIIRQLSSLSKYAEDIFGELFNEAHSFSFRVNSLQERVDRLSVSVTQLDPKEEELSLQDITMRKAFRSSTIQDQQLFDRKTLPIPLQETYDVCEQPPPLNILTPYRDDGKEGLKFYTNPSYFFDLWKEKMLQDTEDKRKEKRKQKQKNLDRPHEPEKVPRAPHDRRREWQKLAQGPELAEDDANLLHKHIEVANGPASHFETRPQTYVDHMDGSYSLSALPFSQMSELLTRAEERVLVRPHEPGSGSPMHGAGDAKPIPTCISSATGLIENRPQSPATGRTPVFVSPTPGSGSPPLPSALSTSSLRASMTSTGSGSVPGSGSPPATALQAPAVPPPPAPLQIAPGVLHPAGSGIAGSLVQPSPPVARAAPVCETVPVHPLPQGEVQGLPPGSGSPPLGSGGIRPSSPVTVTALAHPPSGLHPTPSTAPGPHVPLMPPSPPSQVIPASEPKRHPSTLPVISDARSVLLEAIRKGIQLRKVEEQREQEAKHERIENDVATILSRRIAVEYSDSEDDSEFDEVDWLE	
	WAVE1 (P): human WAVE1 [277–488], wild-type proline-rich domain, Q92558 P279G; P280S; P281G; P282S; P325G; P326S; P327G; P328S; P348G; P349S; P350G; P351S; … (protein) MPLVKRNIDPRHLCHTALPRGIKNELECVTNISLANIIRQLSSLSKYAEDIFGELFNEAHSFSFRVNSLQERVDRLSVSVTQLDPKEEELSLQDITMRKAFRSSTIQDQQLFDRKTLPIPLQETYDVCEQPPPLNILTPYRDDGKEGLKFYTNPSYFFDLWKEKMLQDTEDKRKEKRKQKQKNLDRPHEPEKVPRAPHDRRREWQKLAQGPELAEDDANLLHKHIEVANGPASHFETRPQTYVDHMDGSYSLSALPFSQMSELLTRAEERVLVRPHEPGSGSPMHGAGDAKPIPTCISSATGLIENRPQSPATGRTPVFVSPTPGSGSPPLPSALSTSSLRASMTSTGSGSVPGSGSPPATALQAPAVGSGSAPLQIAPGVLHPAGSGIAGSLVQPSPPVARAAPVCETVPVHPLPQGEVQGLPPGSGSPPLGSGGIRPSSPVTVTALAHPPSGLHPTPSTAPGPHVPLMPPSPPSQVIPASEPKRHPSTLPVISDARSVLLEAIRKGIQLRKVEEQREQEAKHERIENDVATILSRRIAVEYSDSEDDSEFDEVDWLE	Kd [2]: 813 µM; Kd ([1]; modeled as a 1:1 interaction): 138 µM
182 µM	WAVE1 (P): human WAVE1 [277–488], wild-type proline-rich domain, Q92558 P279G; P280S; P281G; P282S; P325G; P326S; P327G; P328S; P348G; P349S; P350G; P351S; … (protein) MPLVKRNIDPRHLCHTALPRGIKNELECVTNISLANIIRQLSSLSKYAEDIFGELFNEAHSFSFRVNSLQERVDRLSVSVTQLDPKEEELSLQDITMRKAFRSSTIQDQQLFDRKTLPIPLQETYDVCEQPPPLNILTPYRDDGKEGLKFYTNPSYFFDLWKEKMLQDTEDKRKEKRKQKQKNLDRPHEPEKVPRAPHDRRREWQKLAQGPELAEDDANLLHKHIEVANGPASHFETRPQTYVDHMDGSYSLSALPFSQMSELLTRAEERVLVRPHEPGSGSPMHGAGDAKPIPTCISSATGLIENRPQSPATGRTPVFVSPTPGSGSPPLPSALSTSSLRASMTSTGSGSVPGSGSPPATALQAPAVGSGSAPLQIAPGVLHPAPPPIAPPLVQPSPPVARAAPVCETVPVHPLPQGEVQGLPPGSGSPPLGSGGIRPSSPVTVTALAHPPSGLHPTPSTAPGPHVPLMPPSPPSQVIPASEPKRHPSTLPVISDARSVLLEAIRKGIQLRKVEEQREQEAKHERIENDVATILSRRIAVEYSDSEDDSEFDEVDWLE	
12 µM	WAVE1 (P): human WAVE1 [277–488], wild-type proline-rich domain, Q92558 P279G; P280S; P281G; P282S; P325G; P326S; P327G; P328S; P369G; P370S; P371G; P372S; … (protein) MPLVKRNIDPRHLCHTALPRGIKNELECVTNISLANIIRQLSSLSKYAEDIFGELFNEAHSFSFRVNSLQERVDRLSVSVTQLDPKEEELSLQDITMRKAFRSSTIQDQQLFDRKTLPIPLQETYDVCEQPPPLNILTPYRDDGKEGLKFYTNPSYFFDLWKEKMLQDTEDKRKEKRKQKQKNLDRPHEPEKVPRAPHDRRREWQKLAQGPELAEDDANLLHKHIEVANGPASHFETRPQTYVDHMDGSYSLSALPFSQMSELLTRAEERVLVRPHEPGSGSPMHGAGDAKPIPTCISSATGLIENRPQSPATGRTPVFVSPTPGSGSPPLPSALSTSSLRASMTSTPPPPVPPPPPPPATALQAPAVGSGSAPLQIAPGVLHPAGSGIAGSLVQPSPPVARAAPVCETVPVHPLPQGEVQGLPPGSGSPPLGSGGIRPSSPVTVTALAHPPSGLHPTPSTAPGPHVPLMPPSPPSQVIPASEPKRHPSTLPVISDARSVLLEAIRKGIQLRKVEEQREQEAKHERIENDVATILSRRIAVEYSDSEDDSEFDEVDWLE	
